Data as given in US20260250322A1, “NEW PEPTIDES AS SELECTIVE IL-23 RECEPTOR INHIBITORS” (SANOFI, priority 2023, published 2026).
Numbered stars: 1 amine (or outer) side, 2 acyl side, 3 side chain; on linkers, the order of the positions; unused ones are H or OH. Bridge positions count the residues as written; N and C are the ends. Square brackets hold non-standard residues; d marks the D form. Primed or numbered codes have the meaning given here. Tyr(Me) = Yme = 4-methoxy-L-phenylalanine (O-methyl-tyrosine), COc1ccc(C[C@H](N[*:1])C(=O)[*:2])cc1; Tyr(Me)″ = O-methyl-tyrosine (4-methoxy-phenylalanine), COc1ccc(C[C@H](N[*:1])C(=O)[*:2])cc1; 1Nal = N[C@@H](Cc1cccc2ccccc12)C(=O)O; 2Nal = N[C@@H](Cc1ccc2ccccc2c1)C(=O)O; AEF = NCCOc1ccc(C[C@H](N)C(=O)O)cc1; Cit = NC(=O)NCCC[C@H](N)C(=O)O; Orn = NCCC[C@H](N)C(=O)O; Aib = CC(C)(N)C(=O)O

Key:
[1] = biological target: T1, IL-23 receptor on the surface of HEK-Blue IL-23 cells (UniProt Q5VWK5 24-629, limits assumed); experiment: cell-based or functional assay
T1 sequence (looked up): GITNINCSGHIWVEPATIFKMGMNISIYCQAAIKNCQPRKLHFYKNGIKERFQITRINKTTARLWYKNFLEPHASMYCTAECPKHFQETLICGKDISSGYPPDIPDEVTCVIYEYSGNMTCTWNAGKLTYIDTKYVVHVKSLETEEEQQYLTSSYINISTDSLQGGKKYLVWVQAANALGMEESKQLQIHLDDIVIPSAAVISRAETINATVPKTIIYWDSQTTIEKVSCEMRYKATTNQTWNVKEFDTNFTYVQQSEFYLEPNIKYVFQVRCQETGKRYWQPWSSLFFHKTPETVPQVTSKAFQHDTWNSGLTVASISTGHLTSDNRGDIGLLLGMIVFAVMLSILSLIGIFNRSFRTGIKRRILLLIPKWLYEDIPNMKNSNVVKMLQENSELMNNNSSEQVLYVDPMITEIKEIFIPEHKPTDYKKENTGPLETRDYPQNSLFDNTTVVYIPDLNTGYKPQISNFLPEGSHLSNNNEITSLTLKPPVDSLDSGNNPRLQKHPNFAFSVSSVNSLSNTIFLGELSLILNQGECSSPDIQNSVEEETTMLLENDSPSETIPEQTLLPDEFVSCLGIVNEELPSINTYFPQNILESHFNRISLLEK

[2] = biological target: T2, recombinant human IL-23R-Fc chimera (human, UniProt Q5VWK5 24-353, limits assumed); experiment: competition ELISA: coated human IL-23, IL-23R-Fc 0.1 ug/ml, peptide titrated
T2 construct: Recombinant reagent; also called interleukin-23 receptor; not shown: detected with goat anti-hu-IgG1-HRP antibody
T2 sequence (looked up): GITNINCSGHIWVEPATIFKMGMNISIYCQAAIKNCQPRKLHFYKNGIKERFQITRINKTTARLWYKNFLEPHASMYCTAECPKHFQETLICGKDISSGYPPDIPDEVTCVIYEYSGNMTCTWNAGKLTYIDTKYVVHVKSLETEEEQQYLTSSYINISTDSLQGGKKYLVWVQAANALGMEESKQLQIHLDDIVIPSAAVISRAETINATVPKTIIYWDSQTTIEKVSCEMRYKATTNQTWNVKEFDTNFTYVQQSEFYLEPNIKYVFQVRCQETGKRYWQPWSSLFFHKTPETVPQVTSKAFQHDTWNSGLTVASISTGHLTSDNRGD
Protocol: Antagonism of peptide compounds for human interleukin-23 receptor inhibitors, was determined by an ELISA assay.
A 384-well plate was coated with 50 μl/well of human IL-23 at a final concentration of 1 μg/ml and incubated overnight at 4° C. The wells were washed 3 times with 80 μl wash buffer and blocked with 80 μl blocking buffer for 60 minutes at room temperature and washed again. 20 μl of serially diluted test peptides was added to each well and subsequently 20 μl of recombinant human IL-23R-Fc chimera at final concentration of 0.1 μg/ml. The plate was incubated for 60 minutes at room temperature. After the wells were washed, bound IL-23R-Fc was detected with goat anti-hu-lgG1-HRP antibody. Signals were visualized with QuantaBlu Fluorogenic Peroxidase Substrate.

Binder | Inhibition of IL-23 induced pSTAT3 (IC50 nM) [1] [nM] | IC50 [2] [nM]
Ac-[dK]NTWQR[Tyr(Me)][2Nal][Aib]DN-NH2 (lactam 1-10; SMILES COc1ccc(C[C@@H]2NC(=O)[C@H](CCCNC(=N)N)NC(=O)[C@H](CCC(N)=O)NC(=O)[C@H](Cc3c[nH]c4ccccc34)NC(=O)[C@H]([C@@H](C)O)NC(=O)[C@H](CC(N)=O)NC(=O)[C@H](NC(C)=O)CCCCNC(=O)C[C@@H](C(=O)N[C@@H](CC(N)=O)C(N)=O)NC(=O)C(C)(C)NC(=O)[C@H](Cc3ccc4ccccc4c3)NC2=O)cc1) [peptide compound SEQ ID NO: 26] | 8110 | 18.8
Ac-[Orn]NTWQR[AEF][2Nal][Aib]ENN-NH2 (lactam 1-10; SMILES CC(=O)N[C@H]1CCCNC(=O)CC[C@@H](C(=O)N[C@@H](CC(N)=O)C(=O)N[C@@H](CC(N)=O)C(N)=O)NC(=O)C(C)(C)NC(=O)[C@H](Cc2ccc3ccccc3c2)NC(=O)[C@H](Cc2ccc(OCCN)cc2)NC(=O)[C@H](CCCNC(=N)N)NC(=O)[C@H](CCC(N)=O)NC(=O)[C@H](Cc2c[nH]c3ccccc23)NC(=O)[C@H]([C@@H](C)O)NC(=O)[C@H](CC(N)=O)NC1=O) [peptide compound SEQ ID NO: 38] | 1570 | 12.5
Ac-[dK]NTWQR[Tyr(Me)][1Nal][Cit]DNN-NH2 (lactam 1-10; SMILES COc1ccc(C[C@@H]2NC(=O)[C@H](CCCNC(=N)N)NC(=O)[C@H](CCC(N)=O)NC(=O)[C@H](Cc3c[nH]c4ccccc34)NC(=O)[C@H]([C@@H](C)O)NC(=O)[C@H](CC(N)=O)NC(=O)[C@H](NC(C)=O)CCCCNC(=O)C[C@@H](C(=O)N[C@@H](CC(N)=O)C(=O)N[C@@H](CC(N)=O)C(N)=O)NC(=O)[C@H](CCCNC(N)=O)NC(=O)[C@H](Cc3cccc4ccccc34)NC2=O)cc1) [peptide compound SEQ ID NO: 18] | 10000 | 11.8
Ac-[dK]NTWQR[Tyr(Me)″][1Nal]K(Ac)DNN-NH2 (lactam 1-10; SMILES COc1ccc(C[C@@H]2NC(=O)[C@H](CCCNC(=N)N)NC(=O)[C@H](CCC(N)=O)NC(=O)[C@H](Cc3c[nH]c4ccccc34)NC(=O)[C@H]([C@@H](C)O)NC(=O)[C@H](CC(N)=O)NC(=O)[C@H](NC(C)=O)CCCCNC(=O)C[C@@H](C(=O)N[C@@H](CC(N)=O)C(=O)N[C@@H](CC(N)=O)C(N)=O)NC(=O)[C@H](CCCCNC(C)=O)NC(=O)[C@H](Cc3cccc4ccccc34)NC2=O)cc1, synthetic macrolactam) [peptide compound SEQ ID NO: 17] | 5650 | 7.87
Ac-[dK]NTWQR[Tyr(Me)″][2Nal]QDNN-NH2 (lactam 1-10; SMILES COc1ccc(C[C@@H]2NC(=O)[C@H](CCCNC(=N)N)NC(=O)[C@H](CCC(N)=O)NC(=O)[C@H](Cc3c[nH]c4ccccc34)NC(=O)[C@H]([C@@H](C)O)NC(=O)[C@H](CC(N)=O)NC(=O)[C@H](NC(C)=O)CCCCNC(=O)C[C@@H](C(=O)N[C@@H](CC(N)=O)C(=O)N[C@@H](CC(N)=O)C(N)=O)NC(=O)[C@H](CCC(N)=O)NC(=O)[C@H](Cc3ccc4ccccc4c3)NC2=O)cc1, synthetic macrolactam) [peptide compound SEQ ID NO: 30] | 6050 | 9.64
Ac-[dK]NTWQR[Tyr(Me)″][1Nal]QDNN-NH2 (lactam 1-10; SMILES COc1ccc(C[C@@H]2NC(=O)[C@H](CCCNC(=N)N)NC(=O)[C@H](CCC(N)=O)NC(=O)[C@H](Cc3c[nH]c4ccccc34)NC(=O)[C@H]([C@@H](C)O)NC(=O)[C@H](CC(N)=O)NC(=O)[C@H](NC(C)=O)CCCCNC(=O)C[C@@H](C(=O)N[C@@H](CC(N)=O)C(=O)N[C@@H](CC(N)=O)C(N)=O)NC(=O)[C@H](CCC(N)=O)NC(=O)[C@H](Cc3cccc4ccccc34)NC2=O)cc1, synthetic macrolactam) [peptide compound SEQ ID NO: 19] | 9600 | 15.6

Next, values leading:

Inhibition of IL-23 induced pSTAT3 (IC50 nM) [1] [nM] | IC50 [2] [nM] | Binder
2210 | 9.03 | Ac-[dK]NTWQR[Tyr(Me)″][2Nal]K(Ac)DNN-NH2 (lactam 1-10; SMILES COc1ccc(C[C@@H]2NC(=O)[C@H](CCCNC(=N)N)NC(=O)[C@H](CCC(N)=O)NC(=O)[C@H](Cc3c[nH]c4ccccc34)NC(=O)[C@H]([C@@H](C)O)NC(=O)[C@H](CC(N)=O)NC(=O)[C@H](NC(C)=O)CCCCNC(=O)C[C@@H](C(=O)N[C@@H](CC(N)=O)C(=O)N[C@@H](CC(N)=O)C(N)=O)NC(=O)[C@H](CCCCNC(C)=O)NC(=O)[C@H](Cc3ccc4ccccc4c3)NC2=O)cc1, synthetic macrolactam) [peptide compound SEQ ID NO: 28]
1380 | 5.42 | Ac-[dK]NTWQRY[1Nal][Aib]DNN-NH2 (lactam 1-10; SMILES CC(=O)N[C@@H]1CCCCNC(=O)C[C@@H](C(=O)N[C@@H](CC(N)=O)C(=O)N[C@@H](CC(N)=O)C(N)=O)NC(=O)C(C)(C)NC(=O)[C@H](Cc2cccc3ccccc23)NC(=O)[C@H](Cc2ccc(O)cc2)NC(=O)[C@H](CCCNC(=N)N)NC(=O)[C@H](CCC(N)=O)NC(=O)[C@H](Cc2c[nH]c3ccccc23)NC(=O)[C@H]([C@@H](C)O)NC(=O)[C@H](CC(N)=O)NC1=O, synthetic macrolactam) [peptide compound SEQ ID NO: 14]
339 | 1.59 | Ac-[dK]NTWQRY[2Nal][Aib]DNN-NH2 (lactam 1-10, synthetic macrolactam) [peptide compound SEQ ID NO: 4]
8010 | 5.74 | Ac-[dK]NTWQR[Tyr(Me)][1Nal][Aib]ENN-NH2 (lactam 1-10; SMILES COc1ccc(C[C@@H]2NC(=O)[C@H](CCCNC(=N)N)NC(=O)[C@H](CCC(N)=O)NC(=O)[C@H](Cc3c[nH]c4ccccc34)NC(=O)[C@H]([C@@H](C)O)NC(=O)[C@H](CC(N)=O)NC(=O)[C@H](NC(C)=O)CCCCNC(=O)CC[C@@H](C(=O)N[C@@H](CC(N)=O)C(=O)N[C@@H](CC(N)=O)C(N)=O)NC(=O)C(C)(C)NC(=O)[C@H](Cc3cccc4ccccc34)NC2=O)cc1) [peptide compound SEQ ID NO: 16]
1610 | 3.55 | Ac-KNTWQR[Tyr(Me)″][1Nal][Aib]DNN-NH2 (lactam 1-10; SMILES COc1ccc(C[C@@H]2NC(=O)[C@H](CCCNC(=N)N)NC(=O)[C@H](CCC(N)=O)NC(=O)[C@H](Cc3c[nH]c4ccccc34)NC(=O)[C@H]([C@@H](C)O)NC(=O)[C@H](CC(N)=O)NC(=O)[C@@H](NC(C)=O)CCCCNC(=O)C[C@@H](C(=O)N[C@@H](CC(N)=O)C(=O)N[C@@H](CC(N)=O)C(N)=O)NC(=O)C(C)(C)NC(=O)[C@H](Cc3cccc4ccccc34)NC2=O)cc1, synthetic macrolactam) [peptide compound SEQ ID NO: 9]
